The assay deals with DR3 on mouse CD4+ T cells (mouse). The assay can be described thus: cell-based or functional assay.
Chain of DR3 on mouse CD4+ T cells (mouse) (Q9QZZ6 19-201): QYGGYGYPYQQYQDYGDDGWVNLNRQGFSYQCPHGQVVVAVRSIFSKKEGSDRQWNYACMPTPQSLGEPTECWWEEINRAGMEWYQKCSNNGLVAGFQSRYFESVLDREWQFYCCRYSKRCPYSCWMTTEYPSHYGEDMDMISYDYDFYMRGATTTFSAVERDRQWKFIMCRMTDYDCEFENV

“recombinant mouse TL1A (from UniProt Q5UBV8 76-252) (ligand)” returned an IL-2 production by activated T cells, increase by TL1A below 2 fold; an IL-4 production by activated T cells, increase by TL1A of 10 fold; an interferon-γ production by activated T cells, increase by TL1A below 2 fold.

These data come from patent US20160053007A1.
